In the DeepSol protein solubility set:

Assay: soluble on expression in E. coli; label from the status in PepcDB or PDB records
For “MGSDKIHHHHHHMSRTITIDPVTRIEGHATITIRLNDAGAVADARFHVTEFRGFERICIGRSIWEMPGITARICGICPVSHSISAARAGDAILGVEIPPAAVHLRRIANLASLIQSHALSFFHLSAADLLMGMDEEPSRRNLWGLVAHHPEVARGGIRLRQIGQKIVSDVAGESIHPSWAVPGGVREPLSPEGRDRIAALLPEGLAIVRGALGMLDGIYARHEAEITAYGDFPSLFAGLTASDGGLEHYDGSLRFTDSAGVHVDELSPEHYAQAVTERAEPWSYMTFPYYHPHGDREGGGMFRVGPLARLNICDRAGTPEADRELAAFRQVRGAGGMVTGSFHYHHARLIEILHALERIGMLLDEPDILDRHVRSEAGVNRPAGVGFCEAPRGTLFHDYEVDDDGIVSRVNLLIATGMNNLAINRTIRQVAAEFIRGGEFTEGILNRIEHGVRAYDPCLSCATHAYGRMPLRVMLLGPDGTVLDEAKRGR”, the “soluble on expression in E. coli” value was “not soluble”.
In the case of “MNKTMAKSLSVIIPACNEVDTISDVIQSVRPLNPVEIIVVANGCNDGTEDVADRLGCKVIKHTELLGNDVGRAVGAKHAIGDVLLFIDGDFAIPTSKLKLFLNPILYDQADVVLNNLDALFLKRQKTTSITVWRQILNAMLEREELKMNSLLDVPHALTKEVVQSIGYECFVNPIVAHLRLVQSKWRISRHCAIDVITPNKFRPFQHAAYGTNLSQSEKRMIGDHIEAVAERILSSDERGGYYDGNRKRDSVYHTLSFEEFYQGWGVTSDFYKGKQLSVVIPVQDEEKTIGNVIEELRKIEPFEIIVVVNGSSDKTKKIAKDKGATTIVYKEALGNDVGRSLGTYFAKGEIVLFIDGDFVIPASELYPFAKAIADGTDVALNDLNHYLDLRVPLHLVTAFKYALNLACDRKDLGVGSLIAVPNAFSRKCLKEIGYRSLLAPCVAQVKAILSGFEVACVSRVEVDKMNRIRPSEHFAKIGHPPAVLRIIGDHIEGLDQIIALTDNRGGFYDGNRKRDVLLEHHHHHH”, the “soluble on expression in E. coli” value is reported as “not soluble”.
In the case of “MKIVLIGAGNVATHLGIALQKAGCLILQVYSRTEESASALAARLSVDYTIVPDEIRRDADLYIVALKDAVLRQLAPVLVKGREQALFVHTAGSMSMDLWKGLVKRYGVLYPMQTFSKQREVDFNTVPFFIEASAPAEVELLRMVAVRLSPKVYEVTSGQRRYLHLAAVFACNFANHMYALSSHILEKQGIPFEVMLPLIDETAGKVHELSPTQAQTGPAVRYDENVISKHLEMLADEESLQELYEKISKSIHNLPLSVIQANKEGKNS”, the “soluble on expression in E. coli” value is reported as “not soluble”.
With “MGSDKIHHHHHHMSKLSNLITQYCPEGVEYKTLGECGKFYGGLTGKSKKDFEDGNSKFITYKNVYSNPALCLDVEDKVRIEPGERQRTLEYGDIVFTGSSETPDECGISSVVAEIPEENLYLNSFCFIFRFDDPSILLPDFAKHLFRSSELRYQIGKTASGVTRYNVSKKLMGKVSFPVPPLEVQREIVRVLDSFTLLTAELTAELTARKQQYEFYRDYLLNGNSDYDICNLGDVCDVVAGGTPSRKVSDYWEDGCIPWLGSTVCKNKKNVDEPTEFITELGLEKSSAKMMKKDTTLIALVGATIGKVAFTTFDVAINQNIAGVYPKDTSKINPSYIYYACTTLYPHFLNLTQGSKLAMANLTFVRGLKISVPPIDVQNHLVNVLDNFESITSDLSIGLPAEIEARKKQYEYYRDALLTYASTGKIIARQTEHN” the “soluble on expression in E. coli” value was “not soluble”.
In the case of “MATTKPYRVLLYYMYTTIENPEEFAAEHLEFCNSLELKGRILVAKEGINGTCSGTVEQTEKYMEAMNNDPRFDGIVFKIDEADGHAFKKMHVRPRPELVTLRLEDDINPHEITGKYLEPKDFYEAMKQEDTVIIDARNDYEFDLGHFKGAIKPDIESFRELPDWIRENKEVLEGKKILTYCTGGIRCEKFSGWLVREGYEDVSQLHGGIVTYGKDPEVQGELWDGQCYVFDERIAVPVNQKEHVIVGKDHFTGEPCERYVNCSNPECNKKILCSEENEAKYLRACSHECRVSPRNRYVIQHELTEEQVAAALEQIEAGKLEHHHHHH”, the “soluble on expression in E. coli” value is reported as “soluble”.
With “MSSIDPATFAAQFAQIEIQPFKQRYQLQTNTYQSQLSALGKVESAMREFRTALNEMNSSTNSIIKNSTSISQEGYFTANADAKALSGSYQIFVEQVATSHQ” the “soluble on expression in E. coli” value was “not soluble”.
In the case of “MTPISGRCEMAEVTNIPNPGHTSSWYAASANVKSVRPTLEGALEADVCIIGGGFTGISAALELSERGYAVIVLEGVRVGFGASGRNGGQIVNGYSRDLETIARRYGHEKAVKLGEMSLEGGTIIRSRVAKYGIDCDLVDGGFFAAFTPKQIREMEAHKAHWEKHGHGGLEMVSEADVGQYVKTNRYAGGMIDRFGGHIHPLNLVQGEAAAAESLGARIFENSRVIAVEQGANPIVRTAMGSVKAKYVLVCGNAYLGTLLPEIGERMMPVSSQVMATEPLDADLIEALLPANYCVEDANYILDYYRRTSDNRLLYGGGIGYGGSDPADLTGVIRPNMLKTFPQLEKTKIEFAWSGNFALTLTRIPHMGRLSDNIYFSHGDSGHGVTTTHLLGKILGEAVAGHAERFDIWSSLPNYPFPGGKTFRVPLTMLGAWWYGLRDKLGLLEHHHHHH”, the “soluble on expression in E. coli” value is reported as “not soluble”.
In the case of “MSLGSIPNDIKVPLVYIEIDNSNALSGTPALAQKVLVIGQQLGTGTASPLTLNRITNSESQMDALFGKGSMLARSLKMFRKSNDYTDVYALGVADLSAGSAAKGEITIAATTAKAGVIALLIAGESVQVGVDEAATAATIATAMIAKINANTNLPVTAALKAATTETVELTAKWKGQTTNDIDIRYNYYDGEQLPQGVTLTVVEMTGGAGTPDMDAVIAAIPNEWYNHIVMPYNDTQSMNKLRDELVNRWGPLKMIEGIAYTAFRGTFAESGAFGVARNDYLFTCMGTNKAPHSPWEWAAAYAGQASYSLGIDPARPLQTLVMTSLLPPAKEIQWDPTERNLLLGDGIATYMVTPSGEVAIEREVSMYRENSYGDPDPSYLDITTPATLGYLRYSLRVMVTNRFPRHKLAGDDVLARLDPGQPVVTPKIMRNAMLELANNDWVPKGLMEDFDGFKETLEVYRDSSDQNRLNCVFKPDIVNQFRIFAALMQFKL”, the “soluble on expression in E. coli” value is reported as “not soluble”.
For “MGSDKIHHHHHHMSWEISGTYVGSCTCQLICPCPVDGLPTGPDGECRGLNVFHIASGKMDDTDLSGVDFAFANWFPSHLTAGGWKVGAVVDDAASDAQVRALGSILRGEAGGPFGDLAALYGEWLGLERAGVKFSGGDTPAGSVADRVVITFEPLPGPDGGVTTVKNAMYGFAPEFQIGKGTGHPDLFGLAFDGVYGETSDFSFASEMAEGAPKGRG”, the “soluble on expression in E. coli” value was “not soluble”.
In the case of “MGSDKIHHHHHHMESFYRTHAYLVEHTNAPVRRDLMDEIDWSDRLIGIKGTRGVGKTTFLLQYAKEKFGTDRSCLFINMNNFYFSGHSLVDFANEFQKRGGKVLLIDQVFKHPEWSKELRMCYDRFPSLKIVFTGSSVMRLKEENLELRDIAKSYNLRGFSFREFLNLQTGMKFRAYSLEEILSTHEQIAKGVLSKVRPLDYFQDYLHHGFYPFFLEKRNFSENLLKTMNMMVEVDILLIKQIELKYLSKIKKLLYLLAVDGPKAPNVSQLASDVQTSRATVMNYIKYLADARLINLVYPKGEEFPKKPSKIMMHNSNLMYSIYPVKVEEQDVLDTFFVNTLWKDHKVHKGDKNVSFMVDEVMPFKICAEGTKIKNNPDVTYALQKAEIGRGNQIPLWMFGFLY”, the “soluble on expression in E. coli” value is reported as “not soluble”.
In the case of “MAYVPTLIANNVLNRAFAEKYRISPMKLQKILYFAAAEYQKNTGKSLFSERFETWQYGPVLRSVYSEFRPFSRDFITRFAKDAENQSHMINESADPALQRVLDTVWSATKGHSAVDLSRITHMENSAWDKSFQNEQPFLSSDHIAADDTYRRELGLTTA”, the “soluble on expression in E. coli” value is reported as “not soluble”.
With “MAHSEEQAAVPCAFIRQNSGNSISLDFEPDTEYQFVEQLEERYKCAFCHSVLHNPHQTGCGHRFCQQCIRSLRELNSVPICPVDKEVIKPQEVFKDNCCKREVLNLHVYCKNAPGCNARIILGRFQDHLQHCSFQAVPCPNESCREAMLRKDVKEHLSAYCRFREEKCLYCKRDIVVTNLQDHEENSCPAYPVSCPNRCVQTIPRARVNEHLTVCPEAEQDCPFKHYGCTVKGKRGNLLEHERAALQDHMLLVLEKNYQLEQRISDLYQSLEQKESKIQQLAETVKKFEKELKQFTQMFGRNGTFLSNVQALTSHTDKSAWLEAQVRQLLQIVNQQPSRLDLRSLVDAVDSVKQRITQLEASDQRLVLLEGETSKHDAHINIHKAQLNKNEERFKQLEGACYSGKLIWKVTDYRVKKREAVEGHTVSVFSQPFYTSRCGYRLCARAYLNGDGSGKGTHLSLYFVVMRGEFDSLLQWPFRQRVTLMLLDQSGKKNHIVETFKADPNSSSFKRPDGEMNIASGCPRFVSHSTLENSKNTYIKDDTLFLKVAVDLTDLEDL” the “soluble on expression in E. coli” value was “soluble”.
With “VCLEFQDCGVGLNAAQFKQLLISAVKDLFGEVDAALPLDILTYEEKTLSAILRICSSGLVKLWSSLTLLGSYKGKKCAFRVIQVSPFLLALSGNSRELVLD” the “soluble on expression in E. coli” value was “not soluble”.
In the case of “MTEVLIKVDLNQPVTENEQIHNRWHPDIPMACWVKPGEDFILETYDWTAGAIKNNDDASDVRDVDLSTVHYLSGPVGVHGAEPGDLLVVDLLDIGARADSQWGFNGFFSRQNGGGFLTDHFPMAQKAIWDFKGMMTSSRHIPGVEFAGLIHPGLIGCLPDHKMLAEWNRREQELIDTDPGRVPPLANPPHAKTAHLGKMKGGPERDLAAATGARTVPPREHGGNCDIKDLSRGSKVFFPVYVDGAGLSVGDLHFSQGDGEITFCGAIEMAGWVHMRVELIKGGMAKYGIKNPVFKPSPIVPTYNKYLIFEGISVDESGQQHYLDVNVAYRQACLNAINYMTKFGYSPAQGYALLGSAPVQGHISGIVDIPNACATLWLPTEIFKFDINPNADGPTRFIDGSIDLPIAPDKLEHHHHHH”, the “soluble on expression in E. coli” value is reported as “not soluble”.
With “MSTQLATSMEIIRKSLRKAAEDVLHINSKNAISNEVDSEEFKETLMKDAMKLMELETEGAQMQHIFEALHNDLKDGSDEVPNEKALEELYEKAKKTHKNVKGERQYFKDIIKSIRDESKNDENEMEVMQVQHSRKDPISKKDIVNPVISKNCGHVYDRDSIHEFAGKKRVIKCAMQGCSETINIGQLADYPDYWTNIKQQQ” the “soluble on expression in E. coli” value was “not soluble”.
In the case of “MSEFHSEISTLSPAPLWQFFDKICSIPHPSKHEEALAQYIINWATEQGFDVRRDPTGNVFIKKPATPGMENKKGVVLQAHIDMVPQKNEDTDHDFTKDPIQPYIDGEWVTAKGTTLGADNGIGMASCLAVLASKDIKHGPIEVLLTIDEEAGMTGAFGLEAGWLEGDILLNTDSEQEGEVYMGCAGGIDGAMTFDIKRDAIPTGFVTRQLTLKGLKGGHSGCDIHTGRGNANKLLGRFLAGHAQELDLRLVEFRGGSLRNAIPREAFVTVAVPAENQEKLAELFNYYTELLKAELGKVETGIVTFNEEIVTESQAFTAADQQRFIAALNACPNGVMRMSDEIEGVVETSLNVGVITTEENKVTVLCLIRSLIDSGRSQVESMLRSVAELAGAQVEFSGAYPGWKPDADSEIMAIFRDMYEGIYGHKPNIMVIHAGLECGLFKEPYPNMDMVSFGPTIKFPHSPDEKVKIDTVQLFWDQMVALLEAIPEKALEHHHHHH”, the “soluble on expression in E. coli” value is reported as “soluble”.
In the case of “MEDIGADSDDFFSLAEELPQNEDLLESEDDAPIIKLINAMLGEAIKEGASDIHIETFEKTLSIRFRVDGVLREVLAPSRKLSSLLVSRVKVMAKLDIAEKRVPQDGRISLRIGGRAVDVRVSTMPSSHGERVVMRLLDKNATRLDLHSLGMTAHNHDNFRRLIKRPHGIILVTGPTGSGKSTTLYAGLQELNSSERNILTVEDPIEFDIDGIGQTQVNPRVDMTFARGLRAILRQDPDVVMVGEIRDLETAQIAVQASLTGHLVMSTLHTNTAVGAVTRLRDMGIEPFLISSSLLGVLAQRLVRTLCPDCKEPYEADKEQRKLFDSKKKEPLILYRATGCPKCNHKGYRGRTGIHELLLVDDALQELIHSEAGEQAMEKHIRATTPSIRDDGLDKVRQGITSLEEVMRGSRSHHHHHH”, the “soluble on expression in E. coli” value is reported as “soluble”.
